This data set can be described thus: protein stability index of a GFP-peptide fusion (yeast GPS) (PSI 1-4); higher = more stable; sorted into four equal gates, so the index is relative within each strain. In short, it runs like this: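 Plasmids in a pooled yeast library fused tiled 17-residue yeast protein peptides downstream of GFP and also expressed Cherry. Mid-log cultures grown without leucine were sorted into four equal gates by GFP/Cherry fluorescence ratio. Each gate's plasmids were PCR-amplified and Illumina-sequenced, and reads were matched to strains by barcodes. The protein stability index is derived by multiplying each gate's read frequency by its gate number and summing the results.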

± gives the uncertainty stated by the source.

On to VINLKQIAKFVVGLGER [RPT1], for which the protein stability index reads like this: (doa10∆) 2.75 ± 0.14; (pdr5∆) 3.39 ± 0.18; (san1∆) 3.12 ± 0.3.

VISLGPNLATFISSGTS [YJL039C/NUP192]: the protein stability index was 2.33 ± 0.061 (doa10∆), 2.64 ± 0.065 (pdr5∆), 2.36 ± 0.073 (san1∆) and 2.3 ± 0.046 (ubr1∆).

As to VISMFVLPIFTTVFFSR [YML031W/NDC1], the protein stability index runs as follows: (doa10∆) 1.38 ± 0.046; (pdr5∆) 1.16 ± 0.065; (san1∆) 1.17 ± 0.11; (ubr1∆) 1.16 ± 0.057.

Consider VITPHFITNVQSISQNS [SWI1], for which the protein stability index by setting is: (doa10∆) 1.85 ± 0.11; (pdr5∆) 2.45 ± 0.11; (san1∆) 2.2 ± 0.14; (ubr1∆) 1.73 ± 0.073.

In the case of VIVTDPRSDAQAIKEAS [RPS0A], the protein stability index is, setting by setting: (doa10∆) 2.88 ± 0.089; (pdr5∆) 2.96 ± 0.08; (san1∆) 2.92 ± 0.068; (ubr1∆) 2.91 ± 0.061.

As for VKEEKEDMETQASDPSK [RPC53], the protein stability index is, setting by setting: (doa10∆) 3.27 ± 0.14; (pdr5∆) 3.41 ± 0.2; (san1∆) 3.2 ± 0.17; (ubr1∆) 3.31 ± 0.15.

In the case of VKFYEIFNFDQLVEITE [SRB8], the protein stability index is, setting by setting: (doa10∆) 1.24 ± 0.11; (pdr5∆) 1.35 ± 0.088; (san1∆) 1.58 ± 0.14; (ubr1∆) 1.37 ± 0.058.

Sequence VKGLLNTYKRLVIGIFK [YJL039C/NUP192] registered a protein stability index (doa10∆) of 2.53 ± 0.061, a protein stability index (pdr5∆) of 2.46 ± 0.051, a protein stability index (san1∆) of 1.5 ± 0.11 and a protein stability index (ubr1∆) of 2.2 ± 0.04.

In turn, VKGRENELLLPSELNQL [RPC82] displayed a protein stability index (san1∆) of 3.35 ± 0.13.

VKHSPGAIKPFTPKLIY [ECM29] displayed a protein stability index (doa10∆) of 3.16 ± 0.089, a protein stability index (san1∆) of 2.87 ± 0.19 and a protein stability index (ubr1∆) of 2.93 ± 0.1.

For VKIVDKDGIRQVDDFQA [PRE1], the protein stability index is, setting by setting: (doa10∆) 2.86 ± 0.14; (pdr5∆) 2.9 ± 0.11.

Take VKLGLNSKMPTRFPPAV [PRP8]: the protein stability index came out at 2.78 ± 0.057 (doa10∆), 3.06 ± 0.076 (pdr5∆), 2.85 ± 0.051 (san1∆) and 2.73 ± 0.06 (ubr1∆).

For VKLGNIWKESLIELSGG [SMC2], the protein stability index by setting is: (doa10∆) 2.22 ± 0.18; (pdr5∆) 2.24 ± 0.098; (san1∆) 2.12 ± 0.14; (ubr1∆) 2.19 ± 0.1.

In the case of VKLQMIKFGGLIIQKIP [ECM29], the protein stability index by setting is: (doa10∆) 2.48 ± 0.059; (pdr5∆) 1.89 ± 0.065; (san1∆) 1.48 ± 0.07; (ubr1∆) 2.37 ± 0.049.

As to VKNLSLMSCISVGTDPM [RPB2], the protein stability index runs as follows: (doa10∆) 1.88 ± 0.067; (pdr5∆) 1.67 ± 0.061; (san1∆) 2.48 ± 0.058; (ubr1∆) 2.43 ± 0.063.

In turn, VKQLENVSSNIVKNAEQ [RPS20] gave a protein stability index (doa10∆) of 2.58 ± 0.092, a protein stability index (pdr5∆) of 2.84 ± 0.081, a protein stability index (san1∆) of 3.15 ± 0.049 and a protein stability index (ubr1∆) of 2.86 ± 0.056.

Regarding VKSFKPHLLKQGLAMVE [RRP42], the protein stability index reads like this: (doa10∆) 2.01 ± 0.13; (pdr5∆) 2.35 ± 0.1; (ubr1∆) 2.29 ± 0.2.

In turn, VKSLRQGKSKLIIIAAN [RPL30] returned a protein stability index (doa10∆) of 2.03 ± 0.11, a protein stability index (pdr5∆) of 1.4 ± 0.11, a protein stability index (san1∆) of 1.62 ± 0.22 and a protein stability index (ubr1∆) of 1.96 ± 0.084.

On to VKTKTIELIDYDKLPAG [RET1], for which the protein stability index was 2.98 ± 0.12 (doa10∆), 3.42 ± 0.13 (pdr5∆), 2.67 ± 0.19 (san1∆) and 2.95 ± 0.082 (ubr1∆).

With VLEDVYRCFAQLELRQL [RRI2], the protein stability index reads like this: (doa10∆) 2.15 ± 0.25; (pdr5∆) 2.61 ± 0.17; (san1∆) 2.5 ± 0.12; (ubr1∆) 2.67 ± 0.17.

As for VLEFCKDYEAKTKAMSL [POP1], the protein stability index is 3.06 ± 0.045 (doa10∆), 2.67 ± 0.043 (pdr5∆), 2.73 ± 0.037 (san1∆) and 3.06 ± 0.031 (ubr1∆).

For the sequence VLGNSRGVDAGKGNTFE [RPN14], the protein stability index is, setting by setting: (doa10∆) 2.73 ± 0.25; (pdr5∆) 3.01 ± 0.17; (san1∆) 3.66 ± 0.11; (ubr1∆) 3.3 ± 0.12.

For VLKADRSWNEPSKSQTN [YML103C/NUP188], the protein stability index runs as follows: (doa10∆) 2.93 ± 0.11; (pdr5∆) 3.16 ± 0.1; (san1∆) 2.89 ± 0.097; (ubr1∆) 3.27 ± 0.083.

On to VLKVDKRFMNTSQNPQR [BRR2], for which the protein stability index was found to be 3 ± 0.056 (doa10∆), 3.2 ± 0.06 (pdr5∆), 3.21 ± 0.069 (san1∆) and 2.99 ± 0.04 (ubr1∆).

As to VLKVYSMINNSNQAVGQ [SRB8], the protein stability index is, setting by setting: (doa10∆) 2.85 ± 0.07; (pdr5∆) 2.78 ± 0.065; (san1∆) 2.83 ± 0.067; (ubr1∆) 2.63 ± 0.051.

The values are drawn from the supplement of paper PMC9732359.
